According to PMC5314460 (Structure (London, England : 1993), 2017):
Each block holds one binder with its values, some of them ahead of it.

Assays:
Assay in all cases: pull-down
Enp1 = target: T1, Enp1 (yeast, UniProt P38333 1-483)
T1 sequence (looked up): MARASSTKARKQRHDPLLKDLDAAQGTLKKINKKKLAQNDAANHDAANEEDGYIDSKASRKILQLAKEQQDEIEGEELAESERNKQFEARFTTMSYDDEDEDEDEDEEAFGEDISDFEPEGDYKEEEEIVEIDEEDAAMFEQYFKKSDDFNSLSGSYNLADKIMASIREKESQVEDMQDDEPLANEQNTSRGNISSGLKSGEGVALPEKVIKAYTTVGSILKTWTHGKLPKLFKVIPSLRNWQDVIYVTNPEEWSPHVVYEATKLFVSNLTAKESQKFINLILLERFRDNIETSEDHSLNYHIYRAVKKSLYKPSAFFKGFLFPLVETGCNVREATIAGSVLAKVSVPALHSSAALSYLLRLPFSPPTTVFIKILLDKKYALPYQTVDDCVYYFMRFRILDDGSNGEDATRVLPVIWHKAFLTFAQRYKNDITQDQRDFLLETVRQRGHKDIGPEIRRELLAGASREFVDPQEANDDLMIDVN

SUMO-Rps3 = target: T2, SUMO-Rps3 (yeast, UniProt P05750 1-240)
T2 sequence: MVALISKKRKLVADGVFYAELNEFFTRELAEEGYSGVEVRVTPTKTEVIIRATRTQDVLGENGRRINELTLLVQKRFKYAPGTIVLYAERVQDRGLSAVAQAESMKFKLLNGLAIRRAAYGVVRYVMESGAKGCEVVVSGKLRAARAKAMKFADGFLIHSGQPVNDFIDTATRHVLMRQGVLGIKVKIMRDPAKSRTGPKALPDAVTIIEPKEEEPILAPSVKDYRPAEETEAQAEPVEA

[1] = target: T3, Enp1-TPR (residues 154-483) (yeast, UniProt P38333 154-483)
T3 sequence (looked up): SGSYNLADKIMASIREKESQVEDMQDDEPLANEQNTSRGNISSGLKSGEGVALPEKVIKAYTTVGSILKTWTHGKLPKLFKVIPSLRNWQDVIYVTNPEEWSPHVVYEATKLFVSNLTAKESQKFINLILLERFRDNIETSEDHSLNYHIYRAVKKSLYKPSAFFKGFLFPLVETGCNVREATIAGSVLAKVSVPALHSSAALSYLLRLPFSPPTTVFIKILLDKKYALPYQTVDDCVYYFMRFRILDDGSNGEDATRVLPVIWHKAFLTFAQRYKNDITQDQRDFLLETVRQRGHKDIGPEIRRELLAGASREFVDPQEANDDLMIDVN

- binding result (Enp1): binds
- binding result (SUMO-Rps3): binds
- binding result [1]: binds
B1: Ltv1-M (residues 185-394) (domain or fragment, yeast, UniProt P34078 185-394, looked up)
chain: DDVVVEDISKKTQLQGDNYGEEEKEDDIFAQLLGSGEAKDEDEFEDEFDEWDIDNVENFEDENYVKEMAQFDNIENLEDLENIDYQADVRRFQKDNSILEKHNSDDEFSNAGLDSVNPSEEEDVLGELPSIQDKSKTGKKKRKSRQKKGAMSDVSGFSMSSSAIARTETMTVLDDQYDQIINGYENYEEELEEDEEQNYQPFDMSAERSD

- binding result (SUMO-Rps3): binds
B2: Ltv1-N (N-terminal 180 residues) (domain or fragment, yeast, UniProt P34078 1-180, looked up)
chain: MSKKFSSKNSQRYVVVHRPHDDPSFYDTDASAHVLVPVSNPNKTSPEADLRKKDVSSTKPKGRRAHVGEAALYGINFDDSEYDYTQHLKPIGLDPENSIFIASKGNEQKVEKKNIEDLFIEPKYRRDEIEKDDALPVFQRGMAKPEYLLHQQDTTDEIRGFKPDMNPALREVLEALEDEA
